The source of these data is patent US20200339692A1 (JIANGSU HENGRUI MEDICINE, published 2020).

Where two headings read alike, the source gives them in different places.

Assay [1] deals with T1, human PD-L1 (Cat. #10084-H08H, Sino Biological) (human, UniProt Q9NZQ7 19-239).
T1 construct: Bought recombinant protein used in the Biacore test; also called hPDL1; hPD-L1
Put plainly: SPR, Biacore X100. Here is the method: (§1) According to the method in the manual of human anti-capture kit (Cat. A BR-1008-39, GE), the human anti-capture antibody was covalently coupled to biosensor chip CM5 (Cat. #BR-1000-12, GE) so that a certain amount of human PD-L1 (Cat. #10084-H08H, Sino Biological) monkey PD-L1 (Cat. #90251-C08H, Sino Biological), mouse PD-L1 (Cat. #50010-M08H, Sino Biological) were affinity captured. The affinity of PD-L1 antibody reacting with PD-L1 was measured with Biacore X100, GE instrument.
(Surface plasmon resonance follows binding to a sensor surface in real time, without labels.)

For assay [2], the target named is T2, monkey PD-L1 (Cat. #90251-C08H, Sino Biological) (monkey (cyno), UniProt G7PSE7 19-239).
T2 construct: Bought recombinant protein used in the Biacore test; also called Monkey (cyno) PD-L1; Cyno PDL1
Put plainly: SPR, Biacore X100. Here is the method:
as §1

Assay [3] concerns the target T3, mouse PD-L1 (Cat. #50010-M08H, Sino Biological) (mouse, UniProt Q9EP73 19-238).
T3 construct: Bought recombinant protein used in the Biacore test
Put plainly: SPR, Biacore X100. Here is the method: as §1

Assay [4] deals with T1, human PD-L1 (Cat. #10084-H08H, Sino …). Put plainly: SPR, Biacore X100, 1:1 Langmuir. Here is the method:
as §1

The target of assay [5] is T2, monkey PD-L1 (Cat. #90251-C08H, Sino …). Put plainly: SPR, Biacore X100, 1:1 Langmuir. Here is the method: as §1
Assay [6] deals with T1, human PD-L1 (Cat. #10084-H08H, Sino …). Description: SPR, Biacore X100, 1:1 Langmuir. Here is the method:
as §1
The source holds these as a separate data set.

In assay [7] the target is T2, monkey PD-L1 (Cat. #90251-C08H, Sino …). Put plainly: SPR, Biacore X100, 1:1 Langmuir. Here is the method: as §1
The source holds these as a separate data set.

Assay [8] has as its target T4, human PD-L1 (ligand blocking test) (human, UniProt Q9NZQ7 19-238, limits assumed). Put plainly: blocking of human PD-L1/PD-1 binding, PD-L1 10 ug/ml; competitor PD-1.
The target of assay [9] is T4, human PD-L1 (ligand blocking test). Description: blocking of B7-1 binding to human PD-L1, PD-L1 1 ug/ml; competitor B7-1.

T2 sequence (G7PSE7 entry or part of it C08H C08H): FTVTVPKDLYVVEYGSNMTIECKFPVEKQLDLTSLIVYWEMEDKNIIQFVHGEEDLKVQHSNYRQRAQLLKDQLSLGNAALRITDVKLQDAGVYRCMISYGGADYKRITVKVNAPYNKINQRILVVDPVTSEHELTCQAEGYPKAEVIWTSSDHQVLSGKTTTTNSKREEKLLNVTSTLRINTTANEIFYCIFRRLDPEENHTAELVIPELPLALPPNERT
T1 sequence (Q9NZQ7 19-239 limits assumed): as the sequence (G7PSE7 entry or part of it C08H C08H) above, with T33A, S34A, N62S, Q68R, R82Q, L173F, A185T, I192T, L215H counted along it
T4 sequence (Q9NZQ7 19-238 limits assumed): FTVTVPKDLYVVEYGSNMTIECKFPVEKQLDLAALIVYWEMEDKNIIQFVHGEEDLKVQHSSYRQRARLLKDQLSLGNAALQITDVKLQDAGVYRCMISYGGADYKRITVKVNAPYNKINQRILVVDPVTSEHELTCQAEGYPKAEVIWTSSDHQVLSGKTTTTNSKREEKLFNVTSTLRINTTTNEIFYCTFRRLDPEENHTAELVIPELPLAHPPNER
T3 sequence (Q9EP73 19-238 limits assumed, stated change not applied): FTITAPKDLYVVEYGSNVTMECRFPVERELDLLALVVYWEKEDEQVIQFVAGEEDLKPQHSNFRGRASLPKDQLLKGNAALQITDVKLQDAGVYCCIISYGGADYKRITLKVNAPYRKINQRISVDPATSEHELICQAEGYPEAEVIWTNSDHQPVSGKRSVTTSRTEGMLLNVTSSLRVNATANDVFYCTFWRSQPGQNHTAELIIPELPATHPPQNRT

B1: H21L68 (antibody, human IgG1, kappa, V domains shown)
VH: QVQLVQSGAEVKKPGASVKVSCKASGYTFTDKWMMWVRQAPGQGLEWMGRITPSSGFAMYNEKFKNRVTMTRDTSTSTVYMELSSLRSEDTAVYYCARGGSSYDYFDYWGQGTTVTVSS
VL: DIVLTQSPASLAVSPGQRATITCRASESVSIHGTHLMHWYQQKPGQPPKLLIYVASNVWSGVPARFSGSGSGTDFTLTINPVEAEDTANYYCQQSFEDPLTFGQGTKLEIKR
notes: also called 24D5 H21 and 24D5 L68
With B1, the binding result in [1] and in assay [2] was “no binding” in each case.

B2: HRP00052: 24D5(GF)IgG4(AA)(S228P) (antibody)
heavy: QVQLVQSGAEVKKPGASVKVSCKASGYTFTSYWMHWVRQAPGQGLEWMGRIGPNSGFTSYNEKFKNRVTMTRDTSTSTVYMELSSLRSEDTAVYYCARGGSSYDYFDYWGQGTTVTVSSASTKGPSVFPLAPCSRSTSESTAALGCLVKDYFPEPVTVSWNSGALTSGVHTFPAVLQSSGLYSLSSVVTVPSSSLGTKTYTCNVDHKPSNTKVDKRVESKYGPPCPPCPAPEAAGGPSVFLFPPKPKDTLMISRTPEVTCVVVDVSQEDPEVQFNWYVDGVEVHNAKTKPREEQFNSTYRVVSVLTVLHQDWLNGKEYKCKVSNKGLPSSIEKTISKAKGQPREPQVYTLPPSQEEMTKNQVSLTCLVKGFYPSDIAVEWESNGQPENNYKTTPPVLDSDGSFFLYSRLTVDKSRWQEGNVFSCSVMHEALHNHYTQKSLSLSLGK
light: DIVLTQSPASLAVSPGQRATITCRASESVSIHGTHLMHWYQQKPGQPPKLLIYAASNLESGVPARFSGSGSGTDFTLTINPVEAEDTANYYCQQSFEDPLTFGQGTKLEIKRTVAAPSVFIFPPSDEQLKSGTASVVCLLNNFYPREAKVQWKVDNALQSGNSQESVTEQDSKDSTYSLSSTLTLSKADYEKHKVYACEVTHQGLSSPVTKSFNRGEC
notes: Parent antibody from WO2017084495A1
As for B2, the binding result in assay [3] is given as “no binding”. Besides, the Kd (commonly a measure of binding affinity in units of concentration) was found to be 67.2 pM in assay [4], 62 pM in [5], 110 pM in assay [6] and 114 pM in assay [7]. The koff – broadly, the rate constant with which the complex falls apart – in [4] is 0.000116 s⁻¹; in assay [5], 9.38e-05 s⁻¹; in assay [6], 0.000139 s⁻¹; in [7], 0.000143 s⁻¹. For the same molecule, the kon (usually the rate constant with which the complex forms) in assay [4] amounted to 1.73e+06 M⁻¹ s⁻¹; in [5], 1.51e+06 M⁻¹ s⁻¹; in assay [6] it was 1.26e+06 M⁻¹ s⁻¹; in assay [7], 1.26e+06 M⁻¹ s⁻¹. Also, the IC50 (commonly the midpoint of a concentration-inhibition curve) in assay [8] was 0.242 ng/mL; in assay [9], 1.23 ng/mL.
